# Measured values from patent US20160272693A1 (ZEALAND PHARMA A S, published 2016).
# *1 amine or outer side, *2 acyl side, *3 side chain or, on linkers, in order; H or OH if unused. Bridges are numbered along the chain shown (N, C = ends). [ ]: non-standard residue; d: D form. The star is where a group is joined. C20 diacid = O=C(O)CCCCCCCCCCCCCCCCCCC(=O)*; γGlu = O=C(O)[C@H](CCC(=O)[*:2])N[*:1]; Hyp = O=C(O)[C@@H]1C[C@@H](O)CN1; NMeI = CC[C@H](C)[C@H](NC)C(=O)O; Sar = CNCC(=O)O
# T1: human amylin receptor 3 (hAMYR3), hCTR2 co-expressed with human receptor activity modifying protein 3 (hRAMP3) (human, UniProt P30988 25-474; O60896 24-148)
# T1 sequence (looked up) 1: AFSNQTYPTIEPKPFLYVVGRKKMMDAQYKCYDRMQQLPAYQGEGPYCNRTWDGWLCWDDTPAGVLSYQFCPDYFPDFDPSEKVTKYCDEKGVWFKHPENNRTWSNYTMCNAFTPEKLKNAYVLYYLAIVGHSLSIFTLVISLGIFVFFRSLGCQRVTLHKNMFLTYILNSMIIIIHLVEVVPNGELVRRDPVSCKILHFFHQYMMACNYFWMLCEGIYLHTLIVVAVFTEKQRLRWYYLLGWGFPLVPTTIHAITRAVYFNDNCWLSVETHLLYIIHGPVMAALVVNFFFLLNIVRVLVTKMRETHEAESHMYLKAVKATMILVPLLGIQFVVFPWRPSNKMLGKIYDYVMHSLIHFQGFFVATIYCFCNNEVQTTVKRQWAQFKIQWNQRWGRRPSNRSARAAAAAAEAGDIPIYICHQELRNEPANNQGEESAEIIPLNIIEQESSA
# T1 sequence (looked up) 2: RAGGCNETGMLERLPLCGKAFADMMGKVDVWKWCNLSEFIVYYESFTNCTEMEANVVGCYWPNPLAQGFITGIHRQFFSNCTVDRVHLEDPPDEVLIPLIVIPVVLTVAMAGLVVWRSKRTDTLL
# B1: [19CD]-isoGlu-R-C( )-GTAT-C( )-ATERLAHFLTRSSF-Gly(Me)-A-Ile(Me)-LSSTEVGSNT-Hyp-NH2 (Compd. 18) (peptide)
# peptide: {C20 diacid}-[γGlu]RCGTATCATERLAHFLTRSSF[Sar]A[NMeI]LSSTEVGSNT[Hyp]-NH2
# modifications: disulfide 3-8
# SMILES: CC[C@H](C)[C@@H](C(=O)N[C@@H](CC(C)C)C(=O)N[C@@H](CO)C(=O)N[C@@H](CO)C(=O)N[C@H](C(=O)N[C@@H](CCC(=O)O)C(=O)N[C@H](C(=O)NCC(=O)N[C@@H](CO)C(=O)N[C@@H](CC(N)=O)C(=O)N[C@H](C(=O)N1C[C@H](O)C[C@H]1C(N)=O)[C@@H](C)O)C(C)C)[C@@H](C)O)N(C)C(=O)[C@H](C)NC(=O)CN(C)C(=O)[C@H](Cc1ccccc1)NC(=O)[C@H](CO)NC(=O)[C@H](CO)NC(=O)[C@H](CCCNC(=N)N)NC(=O)[C@@H](NC(=O)[C@H](CC(C)C)NC(=O)[C@H](Cc1ccccc1)NC(=O)[C@H](Cc1c[nH]cn1)NC(=O)[C@H](C)NC(=O)[C@H](CC(C)C)NC(=O)[C@H](CCCNC(=N)N)NC(=O)[C@H](CCC(=O)O)NC(=O)[C@@H](NC(=O)[C@H](C)NC(=O)[C@@H]1CSSC[C@H](NC(=O)[C@H](CCCNC(=N)N)NC(=O)CC[C@H](NC(=O)CCCCCCCCCCCCCCCCCCC(=O)O)C(=O)O)C(=O)NCC(=O)N[C@@H]([C@@H](C)O)C(=O)N[C@@H](C)C(=O)N[C@@H]([C@@H](C)O)C(=O)N1)[C@@H](C)O)[C@@H](C)O
# B2: [19CD]-isoGlu-R-C( )-NTAT-C( )-ATQRLAHFLHRSSF-Gly(Me)-A-Ile(Me)-LSSTEVGSNTP-NH2 (Compd. 16) (peptide)
# peptide: {C20 diacid-γGlu}-RCNTATCATQRLAHFLHRSSF[Sar]A[NMeI]LSSTEVGSNTP-NH2
# modifications: disulfide 2-7
# B3: [19CD]-isoGlu-R-C( )-GTAT-C( )-ATERLANFLVRSSF-Gly(Me)-A-Ile(Me)-LSSTEVGSNT-Hyp-NH2 (Compd. 17) (peptide)
# peptide: {C20 diacid-γGlu}-RCGTATCATERLANFLVRSSF[Sar]A[NMeI]LSSTEVGSNT[Hyp]-NH2
# modifications: disulfide 2-7
# SMILES: CC[C@H](C)[C@@H](C(=O)N[C@@H](CC(C)C)C(=O)N[C@@H](CO)C(=O)N[C@@H](CO)C(=O)N[C@H](C(=O)N[C@@H](CCC(=O)O)C(=O)N[C@H](C(=O)NCC(=O)N[C@@H](CO)C(=O)N[C@@H](CC(N)=O)C(=O)N[C@H](C(=O)N1C[C@H](O)C[C@H]1C(N)=O)[C@@H](C)O)C(C)C)[C@@H](C)O)N(C)C(=O)[C@H](C)NC(=O)CN(C)C(=O)[C@H](Cc1ccccc1)NC(=O)[C@H](CO)NC(=O)[C@H](CO)NC(=O)[C@H](CCCNC(=N)N)NC(=O)[C@@H](NC(=O)[C@H](CC(C)C)NC(=O)[C@H](Cc1ccccc1)NC(=O)[C@H](CC(N)=O)NC(=O)[C@H](C)NC(=O)[C@H](CC(C)C)NC(=O)[C@H](CCCNC(=N)N)NC(=O)[C@H](CCC(=O)O)NC(=O)[C@@H](NC(=O)[C@H](C)NC(=O)[C@@H]1CSSC[C@H](NC(=O)[C@H](CCCNC(=N)N)NC(=O)CC[C@H](NC(=O)CCCCCCCCCCCCCCCCCCC(=O)O)C(=O)O)C(=O)NCC(=O)N[C@@H]([C@@H](C)O)C(=O)N[C@@H](C)C(=O)N[C@@H]([C@@H](C)O)C(=O)N1)[C@@H](C)O)C(C)C
# Biological target: T1, human amylin receptor 3 (hAMYR3), hCTR2 …
# Assay: cell-based or functional assay
row,hAMYR3 EC50 (nM); cAMP induction,Binder
1,0.41 nM,B1
2,0.11 nM,B2
3,0.61 nM,B3
